Paper PMC7918695, “TFF1 Induces Aggregation and Reduces Motility of Helicobacter pylori” (International Journal of Molecular Sciences, 2021)

Biological target: the molecule itself
Experiment: non-reducing SDS-PAGE with Western blot; purified hrTFF1 loaded without reducing agents to preserve the disulfide bonds; probed with polyclonal anti-TFF1 antibody

B1: human recombinant protein TFF1 (trefoil factor 1) (natural protein, UniProt P04155 25-84, looked up)
chain: EAQTETCTVAPRERQNCGFPGVTPSQCANKGCCFDDTVRGVPWCFYPNTIDVPPEEECEF
notes: Trefoil factor 1 (TFF1), human, recombinant from the hrTFF1-pIVEX vector; It is probably the mature secreted TFF1 without its signal peptide (surmised); The homodimer is held by disulfide bonds, since it is seen only under non-reducing conditions; also called hrTFF1; hTFF1; source: E. coli BLR (DE3) pLysS, purified (HisTrap HP, Factor Xa digestion, second HisTrap pass)
- stoichiometry N: 2
